Test results from paper PMC8461307, “FHR-5 Serum Levels and CFHR5 Genetic Variations in Patients With Immune Complex-Mediated Membranoproliferative Glomerulonephritis and C3-Glomerulopathy” (Frontiers in Immunology, 2021).

Biological target: T1, purified C3b (UniProt P01024 23-667; P01024 749-1663)
T1 construct: complement C3 beta chain, as in C3b; complement C3b alpha' chain (C3 alpha chain without C3a); also called C3b fragment; source: bought: Merck
Assay: SPR; ProteOn XPR36; recombinant FHR-5 variants amine-coupled on a GLC chip at 4,200-4,600 RU; C3b in serial dilutions as analyte in DPBS with 0.005% Tween-20, 50 µl/min; ovalbumin channel subtracted; bivalent analyte model, KD = kd/ka
Conditions: both partners purified

T1 sequence (P01024 23-667, chain 1 of 2): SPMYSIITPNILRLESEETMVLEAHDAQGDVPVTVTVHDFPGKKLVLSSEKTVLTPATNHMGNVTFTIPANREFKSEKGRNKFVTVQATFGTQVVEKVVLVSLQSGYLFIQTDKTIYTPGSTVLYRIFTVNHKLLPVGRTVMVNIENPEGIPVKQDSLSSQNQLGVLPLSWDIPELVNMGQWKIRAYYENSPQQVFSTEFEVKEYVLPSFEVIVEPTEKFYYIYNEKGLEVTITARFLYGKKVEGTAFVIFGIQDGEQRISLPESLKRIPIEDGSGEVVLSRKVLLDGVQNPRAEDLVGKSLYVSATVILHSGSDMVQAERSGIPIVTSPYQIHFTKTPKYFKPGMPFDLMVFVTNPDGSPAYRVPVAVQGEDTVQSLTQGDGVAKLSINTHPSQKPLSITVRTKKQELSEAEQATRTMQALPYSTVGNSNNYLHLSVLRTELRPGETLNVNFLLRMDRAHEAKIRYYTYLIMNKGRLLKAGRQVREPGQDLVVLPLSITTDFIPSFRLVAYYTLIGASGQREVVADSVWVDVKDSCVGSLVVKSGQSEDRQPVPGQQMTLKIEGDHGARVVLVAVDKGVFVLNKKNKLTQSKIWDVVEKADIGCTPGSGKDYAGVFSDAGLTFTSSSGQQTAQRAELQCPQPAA
T1 sequence (P01024 749-1663, chain 2 of 2): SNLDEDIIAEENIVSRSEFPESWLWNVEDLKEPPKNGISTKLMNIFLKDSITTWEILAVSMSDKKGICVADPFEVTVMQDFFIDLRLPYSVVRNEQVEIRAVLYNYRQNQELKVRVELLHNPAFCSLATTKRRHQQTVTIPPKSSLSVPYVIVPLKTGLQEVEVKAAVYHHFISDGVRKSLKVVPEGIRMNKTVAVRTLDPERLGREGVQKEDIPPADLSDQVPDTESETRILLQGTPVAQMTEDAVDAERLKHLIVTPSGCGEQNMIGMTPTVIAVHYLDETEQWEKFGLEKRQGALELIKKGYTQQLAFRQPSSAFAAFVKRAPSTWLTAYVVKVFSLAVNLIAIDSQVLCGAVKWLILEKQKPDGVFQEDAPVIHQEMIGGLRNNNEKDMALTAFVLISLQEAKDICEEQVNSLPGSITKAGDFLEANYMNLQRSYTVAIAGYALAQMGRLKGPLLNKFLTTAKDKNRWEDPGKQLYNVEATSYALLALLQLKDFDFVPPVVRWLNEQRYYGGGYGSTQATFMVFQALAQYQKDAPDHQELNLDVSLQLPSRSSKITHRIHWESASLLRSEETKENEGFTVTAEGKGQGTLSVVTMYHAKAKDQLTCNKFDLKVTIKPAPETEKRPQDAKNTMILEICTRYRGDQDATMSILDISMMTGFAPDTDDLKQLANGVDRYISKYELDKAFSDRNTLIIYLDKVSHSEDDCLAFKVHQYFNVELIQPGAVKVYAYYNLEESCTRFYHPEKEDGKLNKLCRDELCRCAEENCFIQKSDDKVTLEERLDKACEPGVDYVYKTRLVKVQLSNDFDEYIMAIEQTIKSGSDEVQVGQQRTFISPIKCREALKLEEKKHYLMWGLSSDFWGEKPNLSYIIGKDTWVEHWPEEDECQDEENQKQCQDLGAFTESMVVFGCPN

Row | Binder | Kd
1 | recombinant FHR-5 G278S (natural protein, human, UniProt Q9BXR6 19-569, looked up, complement Factor H-related protein 5 (FHR-5), human; amplified from the wtCFHR5 vector with a mutagenic primer; numbered from the ATG translation initiation site; Same construct as m1 with the patient variation G278S) EGTLCDFPKIHHGFLYDEEDYNPFSQVPTGEVFYYSCEYNFVSPSKSFWTRITCTEEGWSPTPKCLRMCSFPFVKNGHSESSGLIHLEGDTVQIICNTGYSLQNNEKNISCVERGWSTPPICSFTKGECHVPILEANVDAQPKKESYKVGDVLKFSCRKNLIRVGSDSVQCYQFGWSPNFPTCKGQVRSCGPPPQLSNGEVKEIRKEEYGHNEVVEYDCNPNFIINGPKKIQCVDGEWTTLPTCVEQVKTCGYIPELEYSYVQPSVPPYQHGVSVEVNCRNEYAMIGNNMITCINGIWTELPMCVATHQLKRCKIAGVNIKTLLKLSGKEFNHNSRIRYRCSDIFRYRHSVCINGKWNPEVDCTEKREQFCPPPPQIPNAQNMTTTVNYQDGEKVAVLCKENYLLPEAKEIVCKDGRWQSLPRCVESTAYCGPPPSINNGDTTSFPLSVYPPGSTVTYRCQSFYKLQGSVTVTCRNKQWSEPPRCLDPCVVSEENMNKNNIQLKWRNDGKLYAKTGDAVEFQCKFPHKAMISSPPFRAICQEGKFEYPICE | 20.5 µM
2 | recombinant FHR-5 R356H (natural protein, human, UniProt Q9BXR6 19-569, looked up, complement Factor H-related protein 5 (FHR-5), human; amplified from the wtCFHR5 vector with a mutagenic primer; histidine instead of arginine at position 356, a variation found in patients; numbered from the ATG translation initiation site; Same construct as m1 with the patient variation R356H) EGTLCDFPKIHHGFLYDEEDYNPFSQVPTGEVFYYSCEYNFVSPSKSFWTRITCTEEGWSPTPKCLRMCSFPFVKNGHSESSGLIHLEGDTVQIICNTGYSLQNNEKNISCVERGWSTPPICSFTKGECHVPILEANVDAQPKKESYKVGDVLKFSCRKNLIRVGSDSVQCYQFGWSPNFPTCKGQVRSCGPPPQLSNGEVKEIRKEEYGHNEVVEYDCNPNFIINGPKKIQCVDGEWTTLPTCVEQVKTCGYIPELEYGYVQPSVPPYQHGVSVEVNCRNEYAMIGNNMITCINGIWTELPMCVATHQLKRCKIAGVNIKTLLKLSGKEFNHNSRIHYRCSDIFRYRHSVCINGKWNPEVDCTEKREQFCPPPPQIPNAQNMTTTVNYQDGEKVAVLCKENYLLPEAKEIVCKDGRWQSLPRCVESTAYCGPPPSINNGDTTSFPLSVYPPGSTVTYRCQSFYKLQGSVTVTCRNKQWSEPPRCLDPCVVSEENMNKNNIQLKWRNDGKLYAKTGDAVEFQCKFPHKAMISSPPFRAICQEGKFEYPICE | 5.6 µM
3 | recombinant wild-type Factor H-related protein 5 (FHR-5WT) (natural protein, human, UniProt Q9BXR6 19-569, looked up, complement Factor H-related protein 5 (FHR-5), human; variations are numbered from the ATG translation initiation site; Secreted into the Sf9 supernatant; also called wild-type FHR-5; wtCFHR5) EGTLCDFPKIHHGFLYDEEDYNPFSQVPTGEVFYYSCEYNFVSPSKSFWTRITCTEEGWSPTPKCLRMCSFPFVKNGHSESSGLIHLEGDTVQIICNTGYSLQNNEKNISCVERGWSTPPICSFTKGECHVPILEANVDAQPKKESYKVGDVLKFSCRKNLIRVGSDSVQCYQFGWSPNFPTCKGQVRSCGPPPQLSNGEVKEIRKEEYGHNEVVEYDCNPNFIINGPKKIQCVDGEWTTLPTCVEQVKTCGYIPELEYGYVQPSVPPYQHGVSVEVNCRNEYAMIGNNMITCINGIWTELPMCVATHQLKRCKIAGVNIKTLLKLSGKEFNHNSRIRYRCSDIFRYRHSVCINGKWNPEVDCTEKREQFCPPPPQIPNAQNMTTTVNYQDGEKVAVLCKENYLLPEAKEIVCKDGRWQSLPRCVESTAYCGPPPSINNGDTTSFPLSVYPPGSTVTYRCQSFYKLQGSVTVTCRNKQWSEPPRCLDPCVVSEENMNKNNIQLKWRNDGKLYAKTGDAVEFQCKFPHKAMISSPPFRAICQEGKFEYPICE | 5.26 µM
